The values that follow come from patent publication US20110190142A1, “DETERMINATION OF RENIN-PRORENIN RECEPTOR ACTIVITY” (Charite- Universitatsmedizin Berlin, priority 2006, published 2011).

Data set [1] has as its system renin/prorenin receptor (RER). The experiment in a line: PLZF translocation, fractionated extraction of cytosolic and nuclear proteins and Western blot. The settings on record: HEK293 cells, c-myc-tagged PLZF, 10 nM renin. The class given is cell-based, human. How it is done: Cytosolic and membrane proteins were isolated using the ProteoExtract Subcellular Proteome Extraction Kit (Calbiochem, Darmstadt, Germany). A fractionated extraction of cytosolic and nuclear proteins was performed as described previously (Funke-Kaiser et al., 2003a). Protein concentrations were determined using the DC Protein Assay (Bio-Rad, München, Germany). Cytosolic, membrane and nuclear fractions were controlled by Western blot using antibodies against Akt (mouse monoclonal, 5G3; 1:1,000; Cell Signalling, Danvers, Mass., USA), angiotensin AT1 receptor (rabbit polyclonal, sc-579; 1:2,000; Santa Cruz Biotechnology, Heidelberg, Germany) and TBP (rabbit polyclonal, sc-204; 1:1,000; Santa Cruz Biotechnology), respectively.
For PLZF translocation experiments HEK293 cells were seeded on day 1 in 6-well plates. 250 ng of pCEP4-PLZF-myc expression vector per well were transfected on day 2 at 40-60% confluency using GeneJuice (Merck Biosciences, Bad Soden, Germany) according to the manufacturer's protocol. […] Chemoluminescence was detected with ECL (Amersham, München, Germany), and subsequent exposition to Hyperfilm (Amersham).

The subject of data set [2] is HEK293 cells. The experiment in a line: Caspase 3/7 activity as a measure of apoptosis. The settings on record: HEK293 cells, 5 nM, 24 hours. The class given is cell-based, human. The protocol:
(§1) For all cell culture studies immortalized human epithelial kidney cells (HEK293 cells) were used. […] Additional inhibition with 1 μM aliskiren was performed as indicated. 1 hour after pre-treatment with losartan±aliskiren cells were stimulated with either 5 nM renin, 5 nM prorenin, or the respective vehicle. Cells were harvested for mRNA expression analysis or determination of viable cell number and apoptosis after 3 or 24 hours, respectively. These experimental procedures have been described in detail previously (Schefe et al., 2006). All experiments were performed in independent triplicates.

In data set [3] the test system is renin/prorenin receptor (RER). The experiment in a line: RER promoter luciferase reporter assay under renin stimulation. The class given is cell-based, human. To be noted: PLZF-overexpressing HEK293 cells, renin vs all controls. The protocol: (§2) The indicated cell types were seeded on day 1 in 12-well plates. 100 ng of indicated pGL3-basic constructs (encoding firefly luciferase) and 20 ng of phRL-null plasmid (encoding humanized Renilla luciferase for standardization of promoter activity; Promega) per well were transfected on day 2 at 60-80% confluency using GeneJuice (Merck Biosciences, Bad Soden, Germany) according to the manufacturer's protocol. Cells were harvested 48 hours after transfection using Passive Lysis Buffer (Promega). Reporter activities were measured in a Pharmingen Monolight 3010 luminometer (BD Biosciences, Erembodegem, Belgium) using the Dual-Luciferase Reporter Assay System (Promega). Promoter activity is expressed as relative luciferase activity (RLA) (Funke-Kaiser et al., 2003a). RLA data represent the mean±standard deviation of at least three single, parallel transfection experiments.
(§3) HEK293 cells were seeded in 24-well plates and transfected with either 100 ng of pCEP4-PLZF-myc expression vector, 50 ng of indicated pGL3-basic construct and 10 ng of phRL-null plasmid (for luciferase assay), or 100 ng of pCEP4-PLZF-myc alone (for PCR experiments) per well as described above. siRNA transfection, renin stimulation and determination of reporter activity were performed as described above, except for an exceeded renin stimulation period of 3 hours.
Background: A reporter such as luciferase makes a cellular process visible.

In data set [4] the test system is renin/prorenin receptor (RER). Kind of data set: PI3K-p85α mRNA by quantitative real-time PCR after renin/prorenin stimulation of HEK293 cells. The class given is cell-based, human. The protocol: as §3
(§4) RNA isolation and cDNA synthesis were performed as described above. qPCR was performed applying a SYBR Green I reaction mix and run on a Stratagene Mx3000P (Stratagene, La Jolla, Calif., USA) using the following primers: […]
(§5) Data represents the mean expression level±standard deviation (standardized to 18S rRNA expression) calculated according to the ddCT method of at least three independent measurements. Equality of PCR efficiencies has been verified applying the program LinRegPCR (Ramakers et al. 2003) and ANOVA testing.
as §1
For orientation: In qPCR the cycle at which signal appears reflects the starting amount.

In data set [5] the test system is renin/prorenin receptor (RER). Kind of data set: PI3K-p85α promoter luciferase reporter assay under renin stimulation. The data set is classed as cell-based, human. To be noted: PLZF-overexpressing HEK293 cells, renin vs control. How it is done: as §2, §3
Data set [6] concerns HEK293 cells. The experiment in a line: Number of viable cells (ATP concentration). The data set is classed as cell-based, human. To be noted: HEK293 cells, 5 nM, 24 hours. How it is done: as §1
The target of data set [7] is endogenous human RER of HEK293 cells (human) (UniProt O75787). Kind of data set: cell-based or functional assay.
Data set [8] has as its system renin/prorenin receptor (RER). Kind of data set: RER mRNA by quantitative real-time PCR after renin/prorenin stimulation of HEK293 cells. The data set is classed as cell-based, human. The protocol: as §3, §4, §5, §1
The mark [9] stands for this setting: HEK293 cells, 5 nM, 3 hours, 1 μM losartan pre-treatment.

Sequence of endogenous human RER of HEK293 cells (human) (O75787 17-350): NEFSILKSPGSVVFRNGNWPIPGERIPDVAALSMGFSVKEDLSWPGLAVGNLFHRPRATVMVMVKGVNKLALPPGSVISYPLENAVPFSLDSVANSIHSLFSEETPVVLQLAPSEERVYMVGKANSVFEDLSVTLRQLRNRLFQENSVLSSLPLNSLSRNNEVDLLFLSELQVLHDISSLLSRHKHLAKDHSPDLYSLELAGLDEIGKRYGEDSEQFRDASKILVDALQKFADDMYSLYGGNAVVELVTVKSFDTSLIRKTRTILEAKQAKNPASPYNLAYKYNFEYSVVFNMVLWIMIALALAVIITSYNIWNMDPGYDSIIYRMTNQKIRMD

B1: human recombinant renin (mammalian expression) (ligand, UniProt P00797 67-406, looked up)
chain: LTLGNTTSSVILTNYMDTQYYGEIGIGTPPQTFKVVFDTGSSNVWVPSSKCSRLYTACVYHKLFDASDSSSYKHNGTELTLRYSTGTVSGFLSQDIITVGGITVTQMFGEVTEMPALPFMLAEFDGVVGMGFIEQAIGRVTPIFDNIISQGVLKEDVFSFYYNRDSENSQSLGGQIVLGGSDPQHYEGNFHYINLIKTGVWQIQMKGVSVGSSTLLCEDGCLALVDTGASYISGSTSSIEKLMEALGAKKRLFDYVVKCNEGPTLPDISFHLGGKEYTLTSADYVFQESYSSKKLCTLAIHAMDIPPPTGPTWALGATFIRKFYTEFDRRNNRIGFALAR
As to B1, in data set [1], the “translocation of PLZF from the cytoplasm to the nucleus” value was “clear increase in nuclear PLZF”. Besides, in the data set on HEK293 cells [2], the “reduction of caspase 3/7 activity” value was found to be 31%. The “decrease in the activity of a wild type RER promoter” value in data set [3] is on record as “about 30%”. In addition, the “increase of PI3K-p85α mRNA relative to vehicle control” value in data set [4] (HEK293 cells with PLZF overexpression) is 105.2±6.74%. For the same molecule, the “increase of PI3K-p85α mRNA relative to vehicle control” value in data set [4] (HEK293 cells without PLZF overexpression) is on record as 30.2±7.9%. Further, the “PI3K-p85α mRNA, % of vehicle control” value in data set [4] (setting [9]) was 171.8%. Moreover, the “increase in PI3K-p85α promoter activity” value in data set [5] is 45%. For the same molecule, the “increase of viable cell number compared to vehicle” value in the data set with HEK293 cells [6] was found to be 103.6%. In data set [7], this molecule showed a PI3K-p85α mRNA (real-time PCR), HEK293 cells with PLZF overexpression of 105 % increase; a PI3K-p85α mRNA (real-time PCR), HEK293 cells without PLZF overexpression of 30.2 % increase; a PI3K-p85α mRNA after 3 hours, 5 nM renin, HEK293 cells (% of vehicle control) of 172; a PI3K-p85α promoter activity (luciferase reporter) in PLZF-overexpressing HEK293 cells of 45 % increase. For the same molecule, in data set [7], the PLZF recruitment to the RER promoter (ChIP with real-time PCR) in HEK293 cells came to 6 fold; the RER mRNA (real-time PCR) in HEK293 cells after renin stimulation combined with PLZF transfection is 45.4 % of control; the RER mRNA (real-time PCR) in HEK293 cells after renin stimulation, without PLZF overexpression was 80.6 % of control; the RER mRNA after 3 hours, 5 nM renin, HEK293 cells (% of vehicle control) came to 59.2. Moreover, in data set [7], the RER promoter activity (luciferase reporter) in PLZF-overexpressing HEK293 cells came to 30 % decrease and the caspase 3/7 activity after 24 hours, 5 nM renin, HEK293 cells was 31 % decrease. In addition, the “RER mRNA (first column set to 100%)” value in data set [8] (HEK293 cells with PLZF overexpression (pCEP4-PLZF) plus renin stimulation) is 45.4±4.7%. The “RER mRNA (first column set to 100%)” value in data set [8] (HEK293 cells without PLZF overexpression, renin stimulation vs vehicle) was 80.6±3.3%. Moreover, the “RER mRNA, % of vehicle control” value in data set [8] (setting [9]) is listed as 59.2%.
